Consider nine molecules from paper PMC2714988, “Dimerization of Hepatitis E Virus Capsid Protein E2s Domain Is Essential for Virus–Host Interaction” (PLoS Pathogens, 2009).

Assay [1] has as its target E2-D496A (Hepatitis E virus) (UniProt Q81871). Nature of the assay: non-reducing SDS-PAGE; loading buffer with only 0.1% SDS, no BME, sample not boiled; compared with MW markers.
Assay [2] concerns the target E2-E479A (Hepatitis E virus) (UniProt Q81871). The assay is described as above.
In assay [3] the target is E2-I529A (Hepatitis E virus) (UniProt Q81871). Described as above.
Assay [4] deals with E2-K534A (Hepatitis E virus) (UniProt Q81871). The assay is described as above.
In assay [5] the target is E2-R542A (Hepatitis E virus) (UniProt Q81871). Nature of the assay: not stated; 'in solution'; the paragraph names non-reducing SDS-PAGE, analytical ultracentrifugation and gel filtration for the mutants without telling which was used here.
Assay [6] addresses E2-Y485A (Hepatitis E virus) (UniProt Q81871). Briefly: non-reducing SDS-PAGE; loading buffer with only 0.1% SDS, no BME, sample not boiled; compared with MW markers.
Assay [7] addresses E2s-Y557A (Hepatitis E virus) (UniProt Q81871). Briefly: AUC; sedimentation equilibrium; 20°C; phosphate-buffered saline pH 7.4; E2s at 0.69, 0.36 and 0.14 OD; 18,000, 21,000 and 24,000 rpm; single ideal species model and self-association monomer-dimer model; dimer to monomers.
Assay [8] has as its target HEV capsid protein domain E2s (ORF2 aa455-602) (Hepatitis E virus) (UniProt Q81871). Briefly: AUC; sedimentation velocity; 20°C; E2s 1 mg/ml in phosphate-buffered saline pH 7.4; 60,000 rpm; c(s) method.
Assay [9] shares this target. Briefly: SEC; Superdex 75 10/300GL in phosphate-buffered saline pH 7.4, 0.5 ml/min, against molecular weight standards. Background: SEC sorts molecules by how far they enter the pores of the column.
For assay [10] the target is unchanged. Nature of the assay: AUC; sedimentation equilibrium; 20°C; phosphate-buffered saline pH 7.4; E2s at 0.69, 0.36 and 0.14 OD; 18,000, 21,000 and 24,000 rpm; single ideal species model and self-association monomer-dimer model; dimer to monomers.
In assay [11] the target is HEV capsid protein E2 (ORF2 aa394-606), wild type (Hepatitis E virus, UniProt Q81871 394-606). Briefly: non-reducing SDS-PAGE; loading buffer with only 0.1% SDS, no BME, sample not boiled; compared with MW markers. Particulars: both partners purified.

As a reminder, the stoichiometry N is a count of units in the complex or per binding partner. On to “E2-D496A (from UniProt Q81871 394-606) (domain or fragment)”, for which the stoichiometry N in [1] came out at 2.
“E2-E479A (from UniProt Q81871 394-606) (domain or fragment)” showed a stoichiometry N in assay [2] of 2.
In assay [3], “E2-I529A (from UniProt Q81871 394-606) (domain or fragment)” had a stoichiometry N of 2.
In the case of “E2-K534A (from UniProt Q81871 394-606) (domain or fragment)”, the stoichiometry N in assay [4] was 2.
Turning to “E2-R542A (from UniProt Q81871 394-606) (domain or fragment)”, the stoichiometry N in assay [5] turned out to be 2.
Regarding “E2-Y485A (from UniProt Q81871 394-606) (domain or fragment)”, in assay [6], the stoichiometry N came out at 2.
As for “E2s-Y557A (from UniProt Q81871 455-602) (domain or fragment)”, in assay [7], the stoichiometry N came to 2.
One may read the Kd as a measure of binding affinity in units of concentration. For “HEV capsid protein domain E2s (ORF2 aa455-602) (from UniProt Q81871 455-602) (domain or fragment)”, the stoichiometry N in [8], in [9] and in assay [10] was 2 each time. The molecule also showed a Kd in [10] of 397 nM.

B1: HEV capsid protein E2 (ORF2 aa394-606), wild type (domain or fragment)
chain: MQLFYSRPVVSANGEPTVKLYTSVENAQQDKGIAIPHDIDLGESRVVIQDYDNQHEQDRPTPSPAPSRPFSVLRANDVLWLSLTAAEYDQSTYGSSTGPVYVSDSVTLVNVATGAQAVARSLDWTKVTLDGRPLSTIQQHSKTFFVLPLRGKLSFWEAGTTKAGYPYNYNTTASDQLLVENAAGHRVAISTYTTSLGAGPVSISAVAVLAPHSA
modifications: Wild-type E2, aa394-606, with start Met. The E2s gene was amplified from this E2 gene, so aa455-602 are taken from 3GGQ; the flanks come from genotype 1 Q81871 because the strain is not printed. …
With B1, in assay [11], the “stoichiometry N” value was found to be 2.
